According to patent US20190202907A1 (180 THERAPEUTICS, published 2019):
Residue numbers refer to the chain shown, from its start.

T1: human ST2L (human, UniProt Q01638 19-328, limits assumed)
T1 construct: also called IL-1R4; IL-33Ra
T1 sequence (looked up): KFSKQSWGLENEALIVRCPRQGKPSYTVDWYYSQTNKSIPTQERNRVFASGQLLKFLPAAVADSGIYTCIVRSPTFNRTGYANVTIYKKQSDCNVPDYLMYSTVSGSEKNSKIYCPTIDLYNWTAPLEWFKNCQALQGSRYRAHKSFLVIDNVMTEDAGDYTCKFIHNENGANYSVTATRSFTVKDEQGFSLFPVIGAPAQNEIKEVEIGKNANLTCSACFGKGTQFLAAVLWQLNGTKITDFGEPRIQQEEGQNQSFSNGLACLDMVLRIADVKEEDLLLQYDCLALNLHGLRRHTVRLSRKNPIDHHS

B1: STLM229 (antibody, from another filing, V domains shown)
VH: EVQLVQSGAEVKKPGATVKISCKVSAFNIKDDYMHWVQQAPGKGLEWMGRIDPAIGNTEYAEKFQGRVTITADTSTDTAYMELSSLRSEDTAVYYCATGDFYAMAYWGQGTLVTVSS
VL: DIQMTQSPSSVSASVGDRVTITCITNTDIDDVIHWYQQKPGKAPKLLIYEGNTLRPGVPSRFSGSGSGTDFTLTISSLQPEDFATYYCLQSDNMLTFGQGTKLEIK
B2: STLM232 (antibody, from another filing, V domains shown)
VH: B1 VH
VL: B1 VL with V11L, L73F, F83I
B3: STLM230 (antibody, from another filing, V domains shown)
VH: B1 VH
VL: B1 VL with V11L
B4: STLM231 (antibody, from another filing, V domains shown)
VH: B1 VH
VL: B1 VL with V11L, A43V, F83V
B5: STLM123 (antibody, from another filing, V domains shown)
VH: EVQLLESGGGLVQPGGSLRLSCAASGFTFSDYAMFWVRQAPGKGLEWVSAIEGEGGETNYADSVKGRFTISRDNSKNTLYLQMNSLRAEDTAVYYCARDPWSTEGSFFVLDYWGQGTLVTVSS
VL: EIVLTQSPATLSLSPGERATLSCRASQSVDDDLAWYQQKPGQAPRLLIYDASNRATGIPARFSGSGSGTDFTLTISSLEPEDFAVYYCQQYITAPLTFGQGTKVEIK
B6: STLM216 (antibody, from another filing, V domains shown)
VH: B5 VH with D31S, A33D, A50D, E52K, E57A
VL: B5 VL with T93G, L96I
B7: STLM124 (antibody, from another filing, V domains shown)
VH: B5 VH with D31I, A33D, F35I, A50T, E52K, E57G, N59Y
VL: B5 VL
B8: STLM212 (antibody, from another filing, V domains shown)
VH: B5 VH with D31V, A33D, F35I, A50T, E52R, E57G, N59Y
VL: EIVLTQSPATLSLSPGERATLSCRASQSVDDDLAWYQQKPGQAPRLLIYDASNRATGIPARFSGSGSGTDFTLTISSLEPEDFAVYYCQQYNDAITFGQGTKVEIK
B9: STLM207 (antibody, from another filing, V domains shown)
VH: B5 VH with D31S, A33D, F35I, A50T, E52R, E57T, N59A
VL: B5 VL
B10: STLM210 (antibody, from another filing, V domains shown)
VH: B5 VH with Y32D, F35I, A50Y, E52G, E54N, E57T, N59Y
VL: B8 VL
B11: STLM214 (antibody, from another filing, V domains shown)
VH: B5 VH with D31S, A33D, A50D, E52K, E57R, N59A
VL: B5 VL with T93D
B12: STLM211 (antibody, from another filing, V domains shown)
VH: B5 VH with D31G, F35I, A50Y, N59Y
VL: B8 VL
B13: STLM215 (antibody, from another filing, V domains shown)
VH: B5 VH with D31S, A33D, E52A, E57R, N59Y
VL: B5 VL with T93G, L96I
B14: STLM213 (antibody, from another filing, V domains shown)
VH: B5 VH with D31F, A33D, F35I, A50T, E52R, E57D
VL: B5 VL with T93D
B15: STLM206 (antibody, from another filing, V domains shown)
VH: B5 VH with D31I, A33D, F35I, A50T, E52R, E57S, N59Y
VL: B5 VL
B16: STLM209 (antibody, from another filing, V domains shown)
VH: B5 VH with D31I, A33D, F35I, A50T, E52R, E57G, N59S
VL: B5 VL
B17: STLM208 (antibody, V domains shown)
VH: B5 VH with D31I, A33D, F35I, A50S, E52R, E57G, N59Y
VL: B5 VL

These binders were tested against T1, human ST2L (assay: affinity table; method not stated).
B1 showed a Kd of 0.035 nM, a koff of 0.000445 s⁻¹ and a kon of 1.29e+07 M⁻¹ s⁻¹.
Binder B2 has a Kd of 0.025 nM, a koff of 0.000449 s⁻¹ and a kon of 1.78e+07 M⁻¹ s⁻¹.
For B3, the Kd was 0.038 nM, the koff was 0.000426 s⁻¹ and the kon was 1.11e+07 M⁻¹ s⁻¹.
Binder B4 has a Kd of 0.046 nM, a koff of 0.000913 s⁻¹ and a kon of 1.97e+07 M⁻¹ s⁻¹.
In the case of B5, the Kd is reported as 0.015 nM, the koff is reported as 0.000208 s⁻¹ and the kon is reported as 1.37e+07 M⁻¹ s⁻¹.
Binder B6 has a Kd of 0.016 nM, a koff of 0.000158 s⁻¹ and a kon of 9.63e+06 M⁻¹ s⁻¹.
Work on B7 yielded a Kd of 0.046 nM, a koff of 0.000756 s⁻¹ and a kon of 1.65e+07 M⁻¹ s⁻¹.
Work on B8 yielded a Kd of 0.032 nM, a koff of 0.000398 s⁻¹ and a kon of 1.24e+07 M⁻¹ s⁻¹.
Work on B9 yielded a Kd of 0.048 nM, a koff of 0.000395 s⁻¹ and a kon of 8.33e+06 M⁻¹ s⁻¹.
With B10 the Kd was 0.019 nM, the koff was 0.000227 s⁻¹ and the kon was 1.21e+07 M⁻¹ s⁻¹.
Work on B11 yielded a Kd of 0.033 nM, a koff of 0.000299 s⁻¹ and a kon of 9.16e+06 M⁻¹ s⁻¹.
B12 showed a Kd of 0.029 nM, a koff of 0.000483 s⁻¹ and a kon of 1.7e+07 M⁻¹ s⁻¹.
In the case of B13, the Kd is reported as 0.025 nM, the koff is reported as 0.000172 s⁻¹ and the kon is reported as 6.91e+06 M⁻¹ s⁻¹.
Work on B14 yielded a Kd of 0.014 nM, a koff of 0.000108 s⁻¹ and a kon of 7.54e+06 M⁻¹ s⁻¹.
B15 was tested, and the Kd was 0.025 nM, the koff was 0.00016 s⁻¹ and the kon was 6.39e+06 M⁻¹ s⁻¹.
Work on B16 yielded a Kd of 0.026 nM, a koff of 0.00017 s⁻¹ and a kon of 6.59e+06 M⁻¹ s⁻¹.
With B17 the Kd was 0.011 nM, the koff was 6.76e-05 s⁻¹ and the kon was 5.97e+06 M⁻¹ s⁻¹.

Each binder was assayed against cyno ST2L (cyno) (assay: affinity table; method not stated).
For B1, the Kd was 0.085 nM, the koff was 0.0085 s⁻¹ and the kon was 1e+08 M⁻¹ s⁻¹.
B2 gave a Kd of 0.08 nM, a koff of 0.00797 s⁻¹ and a kon of 1e+08 M⁻¹ s⁻¹.
For B3, the Kd was 0.144 nM, the koff was 0.0073 s⁻¹ and the kon was 5.06e+07 M⁻¹ s⁻¹.
B4 showed a Kd of 0.172 nM, a koff of 0.0143 s⁻¹ and a kon of 8.27e+07 M⁻¹ s⁻¹.
B5 gave a Kd of 0.005 nM, a koff of 0.000519 s⁻¹ and a kon of 1e+08 M⁻¹ s⁻¹.
B6 showed a Kd of 0.003 nM, a koff of 0.000264 s⁻¹ and a kon of 7.89e+07 M⁻¹ s⁻¹.
Work on B7 yielded a Kd of 0.03 nM, a koff of 0.00257 s⁻¹ and a kon of 8.71e+07 M⁻¹ s⁻¹.
With B8 the Kd was 0.024 nM, the koff was 0.000346 s⁻¹ and the kon was 1.43e+07 M⁻¹ s⁻¹.
B9 was tested, and the Kd was 0.021 nM, the koff was 0.00207 s⁻¹ and the kon was 1e+08 M⁻¹ s⁻¹.
B10 showed a Kd of 0.009 nM, a koff of 0.000528 s⁻¹ and a kon of 5.7e+07 M⁻¹ s⁻¹.
Work on B11 yielded a Kd of 0.037 nM, a koff of 0.000264 s⁻¹ and a kon of 7.2e+06 M⁻¹ s⁻¹.
Work on B12 yielded a Kd of 0.014 nM, a koff of 0.00139 s⁻¹ and a kon of 1e+08 M⁻¹ s⁻¹.
B13 gave a Kd of 0.01 nM, a koff of 0.000369 s⁻¹ and a kon of 3.54e+07 M⁻¹ s⁻¹.
For B14, the Kd was 0.008 nM, the koff was 0.000124 s⁻¹ and the kon was 1.64e+07 M⁻¹ s⁻¹.
B15 gave a Kd of 0.006 nM, a koff of 0.000583 s⁻¹ and a kon of 9.4e+07 M⁻¹ s⁻¹.
With B16 the Kd was 0.009 nM, the koff was 0.000311 s⁻¹ and the kon was 3.39e+07 M⁻¹ s⁻¹.
In the case of B17, the Kd is reported as 0.005 nM, the koff is reported as 7.02e-05 s⁻¹ and the kon is reported as 1.39e+07 M⁻¹ s⁻¹.
